In US20220242962A1 (APTEVO RESEARCH AND DEVELOPMENT, published 2022):

T1: Full-length Human OX40 (human, UniProt P43489 29-277)
T1 sequence: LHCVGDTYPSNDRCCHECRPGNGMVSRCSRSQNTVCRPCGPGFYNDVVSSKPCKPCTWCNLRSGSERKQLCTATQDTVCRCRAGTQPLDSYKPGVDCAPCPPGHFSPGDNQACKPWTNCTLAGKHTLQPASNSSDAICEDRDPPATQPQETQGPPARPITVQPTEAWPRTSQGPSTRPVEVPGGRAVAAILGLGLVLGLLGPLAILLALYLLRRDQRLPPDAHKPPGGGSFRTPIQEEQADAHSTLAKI

T2: Human OX40 ECD-AFH (human)
T2 construct: ECD'; entry includes the C-terminal tags; also called OXF003; Human OX40 ECD-avi-flag-his
T2 chain: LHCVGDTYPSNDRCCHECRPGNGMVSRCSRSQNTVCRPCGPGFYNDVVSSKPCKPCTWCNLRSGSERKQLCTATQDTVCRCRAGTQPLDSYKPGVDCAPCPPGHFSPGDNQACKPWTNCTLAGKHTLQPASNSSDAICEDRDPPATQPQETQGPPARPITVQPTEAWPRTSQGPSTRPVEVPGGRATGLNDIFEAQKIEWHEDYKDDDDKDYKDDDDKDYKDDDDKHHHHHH

T3: Cyno OX40-AFH (cynomolgus monkey)
T3 construct: entry includes the tags; also called OXF005; cyno OX40 ECD
T3 chain: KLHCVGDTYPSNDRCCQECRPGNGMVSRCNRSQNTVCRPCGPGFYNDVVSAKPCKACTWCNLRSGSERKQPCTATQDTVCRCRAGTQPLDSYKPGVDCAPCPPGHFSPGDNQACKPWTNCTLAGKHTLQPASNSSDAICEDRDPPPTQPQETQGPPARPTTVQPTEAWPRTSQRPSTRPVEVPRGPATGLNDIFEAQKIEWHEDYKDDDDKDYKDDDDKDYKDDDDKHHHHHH

T4: Cyno 4-1BB ECD-AFH (cynomolgus monkey)
T4 construct: entry includes the tags; also called FOB004; Cyno CD137 ECD-avi-flag-his
T4 chain: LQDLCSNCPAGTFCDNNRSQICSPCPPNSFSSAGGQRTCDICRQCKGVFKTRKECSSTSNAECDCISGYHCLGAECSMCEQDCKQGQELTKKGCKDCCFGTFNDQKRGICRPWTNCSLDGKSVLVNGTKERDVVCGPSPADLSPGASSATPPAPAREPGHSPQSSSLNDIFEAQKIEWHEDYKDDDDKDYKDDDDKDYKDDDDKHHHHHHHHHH

T5: Full-length Cyno 4-1BB (cynomolgus monkey, UniProt Q07011 24-255 (human entry))
T5 construct: on Jurkat or CHO cells; also called FOB006; cynomolgus 4-1BB
T5 chain: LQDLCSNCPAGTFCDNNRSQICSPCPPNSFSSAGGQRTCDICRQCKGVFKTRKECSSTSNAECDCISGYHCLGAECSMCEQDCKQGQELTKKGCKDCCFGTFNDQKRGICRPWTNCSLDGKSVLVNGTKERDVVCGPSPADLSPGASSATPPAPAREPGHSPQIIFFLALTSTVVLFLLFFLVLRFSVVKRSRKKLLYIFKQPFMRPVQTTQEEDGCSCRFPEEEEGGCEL

T6: Full-length Cyno OX40 (cynomolgus monkey, UniProt P43489 29-277 (human entry))
T6 construct: on CHO-K1SV cells; also called OXF004; cynomolgus OX40
T6 chain: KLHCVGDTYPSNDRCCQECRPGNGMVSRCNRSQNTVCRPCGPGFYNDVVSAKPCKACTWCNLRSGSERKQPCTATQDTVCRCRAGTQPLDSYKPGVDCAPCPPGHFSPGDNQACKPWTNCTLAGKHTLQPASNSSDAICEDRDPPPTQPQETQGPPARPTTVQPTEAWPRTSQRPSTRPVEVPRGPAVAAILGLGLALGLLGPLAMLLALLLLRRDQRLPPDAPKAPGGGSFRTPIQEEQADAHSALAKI


Legend:
Full-length Human OX40 = molecular target: T1, Full-length Human OX40; assay: cell-based or functional assay
Full-length Human 4-1BB = Full-length Human 4-1BB (human, UniProt Q07011 24-255); assay: cell-based or functional assay
Human OX40 ECD-AFH = molecular target: T2, Human OX40 ECD-AFH; assay: SPR (Biacore 8K), construct captured, monovalent ECD
Procedure: (§1) Mouse anti-human IgG (GE, BR-1008-39) at 25 μg/ml in 10 mM sodium acetate pH 5.0 was immobilized at a density of ˜10,000 response units (RU) onto each flow cell of a CM5 research-grade sensor chip (GE) by standard amine coupling chemistry. Each binding protein at approximately 100 nM in HBS-EP+ with 0.2% BSA buffer was captured in a flow cell with the immobilized anti-human IgG at a flow rate of 10 μL/min for 20 seconds, leaving one flow cell surface unmodified as the reference. Using a single-cycle kinetics mode, five different concentrations of ECD were sequentially injected through each flow cell at 30 μL/min for 300 seconds followed by a 600 second dissociation period. Regeneration was achieved by injection of 3 M MgCl₂ at a flow rate of 30 μL/min for 30 seconds followed by HBS-EP+ with 0.2% BSA buffer stabilization for 1 min.
(§2) Sensorgrams obtained from kinetic SPR measurements were analyzed by the double subtraction method. The signal from the reference flow cell was subtracted from the analyte binding response obtained from flow cells with immobilized or captured ligands. Buffer reference responses were then averaged from multiple injections. The averaged buffer reference responses were then subtracted from analyte binding responses, and the final double-referenced data were analyzed with Biacore T200 Evaluation software (2.0, GE), globally fitting data to derive kinetic parameters. All sensorgrams were fitted using a simple one-to-one binding model.
(§3) Using the BIACORE 8K SPR system, the affinity of these constructs for human and cyno 4-1BB, and human and cyno OX40 ECD, were determined using the methods described above. Monovalent binding affinity was determined by capturing the ADAPTIR™ bispecific construct on the chip and injecting monovalent ECD of the target at multiple concentrations.

Cyno OX40-AFH = molecular target: T3, Cyno OX40-AFH; assay: as above
Procedure: as §1, §2, §3

Human 4-1BB ECD-AFH = molecular target: T7, Human 4-1BB ECD-AFH (human); assay: as above
T7 construct: entry includes the tags; also called FOB003; HUMAN CD137 ECD-AVI-FLAG-HIS
Procedure: as §1, §2, §3

Cyno 4-1BB ECD-AFH = molecular target: T4, Cyno 4-1BB ECD-AFH; assay: as above
Procedure: as §1, §2, §3

Full-length Cyno 4-1BB = molecular target: T5, Full-length Cyno 4-1BB; assay: flow cytometry on Jurkat cells transfected with cynomolgus 4-1BB, goat anti-human Fc secondary antibody, MFI (Mean)
Procedure: (§4) Serial dilutions of ADAPTIR™ constructs were incubated with transfected target cells and subsequently labelled with a fluorescently-conjugated goat-a-human Fc secondary antibody. […] (See Example 25.)

Full-length Cyno OX40 = molecular target: T6, Full-length Cyno OX40; assay: flow cytometry on CHOK1SV cells transfected with cynomolgus OX40, goat anti-human Fc secondary antibody, MFI (Mean)
Procedure: as §4

Row | Binder | OX40 Reporter Assay EC50 (Full-length Human OX40) [nM] | OX40 Reporter Assay Max induction (Full-length Human OX40) | 4-1BB Reporter Assay EC50 (Full-length Human 4-1BB) [nM] | 4-1BB Reporter Assay Max induction (Full-length Human 4-1BB) | Kd (Human OX40 ECD-AFH) [nM] | koff (Human OX40 ECD-AFH) [s⁻¹] | kon (Human OX40 ECD-AFH) [M⁻¹ s⁻¹] | Kd (Cyno OX40-AFH) [nM] | koff (Cyno OX40-AFH) [s⁻¹] | kon (Cyno OX40-AFH) [M⁻¹ s⁻¹] | Kd (Human 4-1BB ECD-AFH) [nM] | koff (Human 4-1BB ECD-AFH) [s⁻¹] | kon (Human 4-1BB ECD-AFH) [M⁻¹ s⁻¹] | Kd (Cyno 4-1BB ECD-AFH) [nM] | koff (Cyno 4-1BB ECD-AFH) [s⁻¹] | kon (Cyno 4-1BB ECD-AFH) [M⁻¹ s⁻¹] | EC50 (read off the curve) (Full-length Cyno 4-1BB) [nM] | EC50 (read off the curve) (Full-length Cyno OX40) [nM]
1 | FXX01118 (bispecific antibody, ADAPTIR anti-4-1BB x anti-OX40, pI variant) EVQLVQSGAEVKKPGASVKVSCKASGYTFTSYWMNWVRQAPGQGLEWMGNIYPSGGSTNYAQKFQGRVTMTVDTSTSTVYMELSSLRSEDTAVYYCASFSDGYYAYAMDYWGQGTLVTVSSGGGGSGGGGSGGGGSGGGGSEIVMTQSPATLSLSPGERATLSCRASQSVSSYLNWYQQKPGQAPRLLIYYASRRHTGIPARFSGSGSGTDFTLTISSLQPEDFAVYYCQQGYNLPYTFGQGTKVEIKEPKSSDKTHTCPPCPAPPAAAPSVFLFPPKPKDTLMISRTPEVTCVVVDVSHEDPEVKFNWYVDGVEVHNAKTKPREEQYNSTYRVVSVLTVLHQDWLNGKEYKCAVSNKALPAPIEKTISKAKGQPREPQVYTLPPSRDELTKNQVSLTCLVKGFYPSDIAVEWESNGQPENNYKTTPPVLDSDGSFFLYSKLTVDKSRWQQGNVFSCSVMHEALHNHYTQKSLSLSPGGGGSPSSYVLTQPPSVSVAPGKTARITCGGNNIGSKSVNWFQQKPGQAPVLVVYDDSGRPSGIPARFSGSTSGNTATLTISRVEAGDEADYYCQVWDSSSDHVVFGGGTKLTVLGGGGSGGGGSGGGGSGGGGSQVQLVESGGGVVQPGRSLRLSCAASGFTLSYYGMHWVRQAPGKGLEWVAAISHDGSDKYYADSVKGRFTISRDNSKNRLYLQMNSLRAEDTAVYYCSNDQFDPWGQGTLVTVSSR | 0.016 | 6.28e+06 | 0.018 | 1.38e+06 | < 1 | 0.00031 | 840000 | < 1 | 0.00024 | 1.1e+06 | 17 | 0.0046 | 270000 | 80 | 0.0077 | 96000 | ~0.3 | 1 to 2
2 | FXX01120 (bispecific antibody, ADAPTIR anti-4-1BB x anti-OX40, pI variant) EVQLVQSGAEVKKPGASVKVSCKASGYTFTSYWMNWVRQAPGQGLEWMGNIYPSGGSTNYAQKFQGRVTMTVDTSTSTVYMELSSLRSEDTAVYYCASFSDGYYAYAMDYWGQGTLVTVSSGGGGSGGGGSGGGGSGGGGSEIVMTQSPATLSLSPGERATLSCRASQSVSSYLNWYQQKPGQAPRLLIYYASRRHTGIPARFSGSGSGTDFTLTISSLQPEDFAVYYCQQGYNLPYTFGQGTKVEIKEPKSSDKTHTCPPCPAPPAAAPSVFLFPPKPKDTLMISRTPEVTCVVVDVSHEDPEVKFNWYVDGVEVHNAKTKPREEQYNSTYRVVSVLTVLHQDWLNGKEYKCAVSNKALPAPIEKTISKAKGQPREPQVYTLPPSRDELTKNQVSLTCLVKGFYPSDIAVEWESNGQPENNYKTTPPVLDSDGSFFLYSKLTVDKSRWQQGNVFSCSVMHEALHNHYTQKSLSLSPGGGGSPSSYVLTQPPSVSVAPGKTARITCGGNNIGSKSVNWFQQKPGQAPVLVVYDDSGRPSGVPSRFSGSTSGNTATLTISRVEAGDEADYYCQVWDSSSDHVVFGGGTKLTVLGGGGSGGGGSGGGGSGGGGSQVQLVESGGGVVQPGRSLRLSCAASGFTLSYYGMHWVRQAPGKGLEWVAAISHDGSDKYYADSVKGRFTISRDNSKNRLYLQMNSLRAEDTAVYYCSNDQFDPWGQGTLVTVSSR | 0.012 | 6.12e+06 | 0.015 | 1.38e+06 | 0.4 | 0.00039 | 1e+06 | 0.2 | 0.00023 | 950000 | 18 | 0.0046 | 260000 | 77 | 0.0075 | 97000 | ~0.3 | 1 to 2
3 | FXX01121 (bispecific antibody, ADAPTIR anti-4-1BB x anti-OX40, pI variant) EVQLVQSGAEVKKPGASVKVSCKASGYTFTSYWMNWVRQAPGQGLEWMGNIYPSGGSTNYAQKFQGRVTMTVDTSTSTVYMELSSLRSEDTAVYYCASFSDGYYAYAMDYWGQGTLVTVSSGGGGSGGGGSGGGGSGGGGSEIVMTQSPATLSLSPGERATLSCRASQSVSSYLNWYQQKPGQAPRLLIYYASRRHTGIPARFSGSGSGTDFTLTISSLQPEDFAVYYCQQGYNLPYTFGQGTKVEIKEPKSSDKTHTCPPCPAPPAAAPSVFLFPPKPKDTLMISRTPEVTCVVVDVSHEDPEVKFNWYVDGVEVHNAKTKPREEQYNSTYRVVSVLTVLHQDWLNGKEYKCAVSNKALPAPIEKTISKAKGQPREPQVYTLPPSRDELTKNQVSLTCLVKGFYPSDIAVEWESNGQPENNYKTTPPVLDSDGSFFLYSKLTVDKSRWQQGNVFSCSVMHEALHNHYTQKSLSLSPGGGGSPSSYVLTQPPSVSVAPGKTARITCGGNNIGSKSVNWFQQKPGQAPVLVVYDDSGRPSGIPKRFSGSTSGNTATLTISRVEAGDEADYYCQVWDSSSDHVVFGGGTKLTVLGGGGSGGGGSGGGGSGGGGSQVQLVESGGGVVQPGRSLRLSCAASGFTLSYYGMHWVRQAPGKGLEWVAAISHDGSDKYYADSVKGRFTISRDNSKNRLYLQMNSLRAEDTAVYYCSNDQFDPWGQGTLVTVSSR | 0.016 | 6.19e+06 | 0.016 | 1.43e+06 | 0.1 | 0.00013 | 1.2e+06 | 0.2 | 0.00018 | 1e+06 | 9 | 0.0036 | 390000 | 30 | 0.013 | 420000 | ~0.3 | 1 to 2
